Activity data for 2 substances are collected here from US5650283.

Data set [1] deals with LexA(1-202)-AHRNΔ166 chimera (synthetic construct). In words: cell_activity. The following applies: average lacZ induction over background, agonist dependent.
Data set [2] has as its system human AhR + ARNT expressed in yeast (Homo sapiens). Briefly: cell_activity. To be noted: lacZ induction over background by betaNF or alphaNF; none with AHR or ARNT only.

For “eight LexA operator lacZ reporter (pSH18-34)”, the activity in data set [1] turned out to be 90 fold.

In the case of DRE2-DRE3 lacZ reporter (pDRE23-Z), the activity in data set [2] came to 12 fold.
